Source: the RNAGym collection of RNA variant scans (doi:10.7554/elife.80360)

B1: CPEB3 Ribozyme (parent)
chain: GGGGGCCACAGCAGAAGCGUUCACGUCGCGGCCCCUGUCAGAUUCUGGUGAAUCUGCGAAUUCUGCUGU

Variants of: B1
Experiment: self-cleavage, relative activity (ratio to wild type); higher = more cleavage; co-transcriptional

Variant | self-cleavage
U44A A51C | 0.939
U44A A51G | 0.936
C45U A51G | 1.01
U43A C66G | 0.572
U43G U64G | 0.649
U43A A59U | 0.579
U43A A59G | 0.782
U43A A59C | 0.573
U43A U62C | 0.668
A42U U55C | 0.522
C45G U62A | 0.939
C45U G65A | 0.929
U43C C66A | 0.614
U43C G68A | 1.03
U43C G68C | 1.01
U43C U62G | 0.783
U43G G56U | 0.385
U46C C66U | 0.959
U44C U61A | 0.801
U44C U61G | 0.49
U44A U62A | 0.838
U43A U61G | 0.485
U43A U61A | 0.651
U44A G56U | 0.677

Variant | self-cleavage
U44C U62A | 0.728
U46C A52U | 0.974
U44A C54U | 0.923
A42U G58U | 0.965
U44A U61G | 0.645
U43A U64G | 0.578
U43A G58C | 0.901
U44C G50A | 0.939
C45A A52G | 0.97
C45A A52C | 0.908
A42G U62A | 0.733
A42G U62G | 0.709
U44A G50A | 0.962
A42U U64C | 0.609
U43G U53C | 0.874
A42G U61A | 0.693
A42G U61C | 0.521
U46A U49C | 0.666
U46A U49G | 0.922
C45U G58C | 1.01
C45U G58U | 1.01
C45U G58A | 0.972
C45A C66A | 0.744
C45A C66U | 0.919

Variant | self-cleavage
U46A C54U | 0.973
U44G C54A | 0.596
C45G C66U | 0.961
C45G C66A | 0.767
U46G G48C | 0.994
U46G G48A | 1.01
A42U U43C | 0.77
A42U U43G | 0.735
U44A C66A | 0.758
U43A U67G | 0.889
U43C C63U | 0.914
U44G C45G | 0.855
U44G C45U | 0.945
U43C G50U | 0.99
U43C G50C | 0.915
A42U C57G | 0.298
A42U C57A | 0.379
U46A U64C | 0.98
C45G C63A | 0.732
C45G C63G | 0.798
U46C G50U | 0.984
U44A U64C | 0.76
U44G U64A | 0.662
A42U U53C | 0.935

Variant | self-cleavage
U44A U49C | 0.922
A42U C66G | 0.682
A42U C45A | 0.889
A42U C45G | 0.89
A42U C45U | 0.997
U46C G68U | 1.02
U43G G50C | 0.864
U44A C45A | 0.886
C45A A59G | 0.971
U44C C45G | 1
U44G G48A | 0.963
U44G G48U | 0.986
U46C C57U | 0.279
U46C C57G | 0.361
U43G U69C | 1.03
U43G U69A | 0.954
U46A A51G | 0.946
C45A U53G | 0.863
C45A U53C | 0.804
C45G U67G | 1.01
C45U C54U | 1.01
C45U C54G | 0.785
U43C C45G | 0.964
U43C C45A | 0.961

Variant | self-cleavage
A42G U46C | 0.965
U43A A51C | 0.933
U43C G58C | 0.936
U46A U62A | 0.937
C45G A52G | 0.989
C45G A52U | 0.998
U43G G65A | 0.453
A42U G56C | 0.326
C45G G47U | 1.04
C45G G47C | 1
U43C G48A | 1.02
U43G G47A | 0.95
U43G G47U | 0.999
U46A C57A | 0.434
U44C G56A | 0.7
A42U A51G | 0.933
C45G U49A | 0.987
U46C A60G | 0.88
U46A U69G | 1.03
A42U U61C | 0.435
C45A C57A | 0.359
C45A C57U | 0.374
C45A U49G | 1.01
C45A U49A | 0.997

Variant | self-cleavage
C45U U67G | 1.02
C45U U67A | 1.01
U44A G47U | 1
U44A G47A | 1.01
A42G G68C | 0.963
A42G G68U | 1.01
A42G G68A | 0.98
A42U G47A | 0.957
C45U U64A | 0.88
C45U U64C | 0.905
C45U G68A | 1.02
C45U G47C | 0.998
A42U C54U | 0.81
U44A U55G | 0.551
U44G G50A | 1
U46C A51C | 0.99
C45A C54A | 0.603
U44G A59C | 0.629
U46A A59U | 0.842
U44G U49C | 0.901
U44G U49A | 0.935
U43C U55G | 0.388
U46C G58U | 0.933
U46C G58C | 0.976

Variant | self-cleavage
U44C U46G | 0.98
U43C G47U | 0.98
U44G U53G | 0.755
U43G U44G | 0.83
U46G C63G | 0.825
U43A A52C | 0.991
U43A A52G | 1
U46A U61A | 0.982
U46A G65C | 0.601
U46A G65A | 0.954
U44A C63U | 0.985
U44A C63G | 0.645
A42U U67C | 0.947
A42G U53C | 0.891
U44G A52C | 0.976
U46C U53A | 0.933
U46C U53C | 0.878
U46C G56C | 0.785
U46C G56A | 0.933
U43C U69G | 1.03
U43C U69C | 1.07
A42U U49A | 0.958
U43A C54U | 0.771
